Reference: US20200123515, “TGFBetaR2 ENDONUCLEASE VARIANTS, COMPOSITIONS, AND METHODS OF USE” (bluebird bio, Inc., published 2020)

Columns and labels:
[1] = molecular target: T1, TGFβR2.B3.F8 I-OnuI HE variant (HEK 293T expression) (Artificial Sequence (parent Ophiostoma …)); assay: cell_activity; rate of generating iRFP-positive cells; chromosomal reporter in HEK 293T
T1 chain: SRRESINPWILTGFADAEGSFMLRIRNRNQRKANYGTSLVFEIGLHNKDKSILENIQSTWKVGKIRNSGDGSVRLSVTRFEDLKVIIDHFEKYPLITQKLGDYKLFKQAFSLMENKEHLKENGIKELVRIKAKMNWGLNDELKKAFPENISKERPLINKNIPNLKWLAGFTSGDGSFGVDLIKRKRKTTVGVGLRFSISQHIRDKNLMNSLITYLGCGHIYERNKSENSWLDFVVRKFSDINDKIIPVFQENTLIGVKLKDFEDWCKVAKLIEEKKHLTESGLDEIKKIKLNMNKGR
Method: The activity of reprogrammed I-OnuI HEs that target exon 6 of the TGFβR2 gene was measured using a chromosomally integrated fluorescent reporter system (Certo et. al., 2011). Fully reprogrammed I-OnuI HEs that bind and cleave the TGFβR2 target sequence (SEQ ID NO: 11) were cloned into mammalian expression plasmids and then individually transfected into a HEK 293T […] cell line that contained the TGFβR2 target sequence upstream of an out-of-frame gene encoding the fluorescent iRFP protein. Cleavage of the embedded target site by the HE and the accumulation of indels following DNA repair via the non-homologous end joining (NHEJ) pathway results in approximately one out of three repaired loci placing the fluorescent reporter gene back “in-frame”. The percentage of iRFP fluorescing HEK 293T cells is therefore used a readout of endonuclease activity at the chromosomally embedded target sequence. […] FIG. 3 (top graph).
A secondary I-OnuI variant library was next generated by performing random mutagenesis on the TGFβR2.B3 HE variant (e.g., SEQ ID NO: 6). Display-based flow sorting was performed under more stringent cleavage conditions in an effort to isolate variants with improved catalytic efficiency. […] FIG. 3 (bottom graph).

[2] = molecular target: T2, TGFβR2.B3.F8 I-OnuI HE variant (yeast surface display) (Artificial Sequence (parent Ophiostoma …)); assay: flow; sub-nanomolar affinity stated; yeast surface affinity titration, exact value only in figure; conditions: tags: yeast surface display
T2 chain: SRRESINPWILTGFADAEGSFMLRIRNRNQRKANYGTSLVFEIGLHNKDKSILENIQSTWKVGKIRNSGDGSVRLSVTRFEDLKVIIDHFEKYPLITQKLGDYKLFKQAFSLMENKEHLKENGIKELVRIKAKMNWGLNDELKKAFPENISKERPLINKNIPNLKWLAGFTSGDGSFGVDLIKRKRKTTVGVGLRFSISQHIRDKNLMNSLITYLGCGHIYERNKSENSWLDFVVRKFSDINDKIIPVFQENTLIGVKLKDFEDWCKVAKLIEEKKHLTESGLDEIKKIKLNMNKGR

B1: TGFβR2 exon 6 I-OnuI HE variant target site (dsDNA)
DNA 1: CGACCAGAAATTCCCAGCTTCT
DNA 2: AGAAGCTGGGAATTTCTGGTCG
activity [1]: ~4 fold vs TGFβR2.B3 | Kd [2]: < 1 nM
